According to FireProtDB (doi:10.1111/j.1432-1033.1995.tb20713.x):

Conditions: Saccharomyces cerevisiae (strain ATCC 204508 / S288c), Fluorescence, reversible: yes, whole UniProt chain shown
[1] = pH 4.6, Thermal, Acetic acid-NaOH 30 mM
[2] = pH 7.5, 5.2 °C, GdnHCl, MOPS-NaOH 30 mM
[3] = pH 7.5, 10.2 °C, GdnHCl, MOPS-NaOH 30 mM
[4] = pH 7.5, 15.2 °C, GdnHCl, MOPS-NaOH 30 mM
[5] = pH 7.5, Thermal, MOPS-NaOH 30 mM

B1: Adenylate kinase wild type, P07170 (protein)
chain: MSSSESIRMVLIGPPGAGKGTQAPNLQERFHAAHLATGDMLRSQIAKGTQLGLEAKKIMDQGGLVSDDIMVNMIKDELTNNPACKNGFILDGFPRTIPQAEKLDQMLKEQGTPLEKAIELKVDDELLVARITGRLIHPASGRSYHKIFNPPKEDMKDDVTGEALVQRSDDNADALKKRLAAYHAQTEPIVDFYKKTGIWAGVDASQPPATVWADILNKLGKD
In the case of B1, the unfolding free energy (pH 4.6, 25 °C, Thermal, Acetic acid-NaOH 30 mM) is reported as 2.15 kcal/mol, the Tm [1] is reported as 48.6 °C and the “unfolding enthalpy (van 't Hoff)” value [1] is reported as 57.4 kcal/mol. For the same protein, the denaturant m value [2] was 5.28 kcal/mol/M, the “denaturant midpoint (higher = more stable)” value (shortened to “denaturant midpoint”) [2] was 0.76 M and the unfolding free energy [2] was 3.97 kcal/mol. For the same protein, the denaturant m value [3] was 6.98 kcal/mol/M, the “denaturant midpoint” value [3] was 0.7 M and the unfolding free energy [3] was 4.9 kcal/mol. The denaturant m value [4] was 7.29 kcal/mol/M, the “denaturant midpoint” value [4] was 0.75 M and the unfolding free energy [4] was 5.47 kcal/mol. The unfolding free energy (pH 7.5, 25 °C, Thermal, MOPS-NaOH 30 mM) was 3.82 kcal/mol, the Tm [5] was 47.7 °C and the “unfolding enthalpy (van 't Hoff)” value [5] was 81.3 kcal/mol.
